Source: US12031160B2, “Method for the production of glufosinate-ammonium” (ZHEJIANG UNIVERSITY OF TECHNOLOGY, priority 2018, dated 2024)
Substitutions are numbered along the chain they refer to. In names and notes the source's numbering stands.

Key:
[1] = substrate: CP(=O)(O)CCC(=O)C(=O)O; assay: purified protein, by the assay type; settings: other: PPO 2-10 mM, NADPH 1-5 mM, pH 7.4, 35° C., double-reciprocal plot
[2] = substrate: NC(=O)C1=CN([C@@H]2O[C@H](COP(=O)(O)OP(=O)(O)OC[C@H]3O[C@@H](n4cnc5c(N)ncnc54)[C@H](OP(=O)(O)O)[C@@H]3O)[C@@H](O)[C@H]2O)C=CC1; assay: purified protein, by the assay type
[3] = substrate: CP(=O)(O)CCC(=O)C(=O)O; assay: Kinetic parameters of purified mutant PPTGDH-G239K; format: biochemical, Pseudomonas moorei; settings: other: PPO 2-10 mM, NADPH 1-5 mM, pH 7.4, 35° C., double-reciprocal plot
Description: (§1) 1. […] The mutant proteins were purified by Ni-NTA column(1.6×10 cm, Bio-Rad, the USA), and the specific operations were carried out as follows: (1)equilibrate a Ni-NTA column with 5 column volumes of a binding buffer(pH 8.0, 50 mM sodium phosphate buffer containing 0.3 M NaCl) until the baseline is steady; (2)load the sample with a flow rate of 1 mL/min with the amount of the loading sample of 25-40 mg/mL, thereby attaching the target protein to the Ni-NTA column; (3)wash the column with 6 column volumes of buffer A (pH 8.0, 50 mM sodium phosphate buffer containing 0.3 M NaCl and 30 mM imidazole) at a flow rate of 1 mL/min until the baseline is steady; (4)wash the column with buffer B (pH 8.0, 50 mM sodium phosphate buffer containing 0.3 M NaCl and 500 mM imidazole) at a flow rate of 1 mL/min, collect the target protein and dialyze overnight in a pH 7.5, 20 mM phosphate buffer, thereby obtaining the pure glufosinate-ammonium dehydrogenase; and (5)wash the Ni-NTA column with 5 column volumes of a binding buffer(pH 8.0, 50 mM sodium phosphate buffer containing 0.3 M NaCl) until the baseline is steady, and store the Ni-NTA column in 5 column volumes of ultrapure water containing 20% ethanol.
(§2) According to sequential mechanism in glufosinate-ammonium dehydrogenase's catalytic reaction, vmax, Km^A, Km^B can be calculated by a double-reciprocal plot, the results were shown in Table 4.

[4] = substrate: NC(=O)C1=CN([C@@H]2O[C@H](COP(=O)(O)OP(=O)(O)OC[C@H]3O[C@@H](n4cnc5c(N)ncnc54)[C@H](OP(=O)(O)O)[C@@H]3O)[C@@H](O)[C@H]2O)C=CC1; assay: Kinetic parameters of purified mutant PPTGDH-G239K; format: biochemical, Pseudomonas moorei; settings: other: PPO 2-10 mM, NADPH 1-5 mM, pH 7.4, 35° C., double-reciprocal plot
Description: as §1, §2

[5] = substrate: CP(=O)(O)CCC(=O)C(=O)O; assay: Kinetic parameters of purified mutant PPTGDH-L107R-F188P; format: biochemical, Pseudomonas moorei; settings: other: PPO 2-10 mM, NADPH 1-5 mM, pH 7.4, 35° C., double-reciprocal plot
Description: as §1, §2

[6] = substrate: NC(=O)C1=CN([C@@H]2O[C@H](COP(=O)(O)OP(=O)(O)OC[C@H]3O[C@@H](n4cnc5c(N)ncnc54)[C@H](OP(=O)(O)O)[C@@H]3O)[C@@H](O)[C@H]2O)C=CC1; assay: as above; format: biochemical, Pseudomonas moorei; settings: other: PPO 2-10 mM, NADPH 1-5 mM, pH 7.4, 35° C., double-reciprocal plot
Description: as §1, §2

[7] = substrate: CP(=O)(O)CCC(=O)C(=O)O; assay: Kinetic parameters of purified mutant PPTGDH-F357G; format: biochemical, Pseudomonas moorei; settings: other: PPO 2-10 mM, NADPH 1-5 mM, pH 7.4, 35° C., double-reciprocal plot
Description: as §1, §2

[8] = substrate: NC(=O)C1=CN([C@@H]2O[C@H](COP(=O)(O)OP(=O)(O)OC[C@H]3O[C@@H](n4cnc5c(N)ncnc54)[C@H](OP(=O)(O)O)[C@@H]3O)[C@@H](O)[C@H]2O)C=CC1; assay: Kinetic parameters of purified mutant PPTGDH-F357G; format: biochemical, Pseudomonas moorei; settings: other: PPO 2-10 mM, NADPH 1-5 mM, pH 7.4, 35° C., double-reciprocal plot
Description: as §1, §2

[9] = substrate: CP(=O)(O)CCC(=O)C(=O)O; assay: Kinetic parameters of purified mutant PPTGDH-L107R; format: biochemical, Pseudomonas moorei; settings: other: PPO 2-10 mM, NADPH 1-5 mM, pH 7.4, 35° C., double-reciprocal plot
Description: as §1, §2

[10] = substrate: NC(=O)C1=CN([C@@H]2O[C@H](COP(=O)(O)OP(=O)(O)OC[C@H]3O[C@@H](n4cnc5c(N)ncnc54)[C@H](OP(=O)(O)O)[C@@H]3O)[C@@H](O)[C@H]2O)C=CC1; assay: Kinetic parameters of purified mutant PPTGDH-L107R; format: biochemical, Pseudomonas moorei; settings: other: PPO 2-10 mM, NADPH 1-5 mM, pH 7.4, 35° C., double-reciprocal plot
Description: as §1, §2

[11] = substrate: CP(=O)(O)CCC(=O)C(=O)O; assay: Kinetic parameters of purified mutant PPTGDH-L107R-F188P-G239K; format: biochemical, Pseudomonas moorei; settings: other: PPO 2-10 mM, NADPH 1-5 mM, pH 7.4, 35° C., double-reciprocal plot
Description: as §1, §2

[12] = substrate: NC(=O)C1=CN([C@@H]2O[C@H](COP(=O)(O)OP(=O)(O)OC[C@H]3O[C@@H](n4cnc5c(N)ncnc54)[C@H](OP(=O)(O)O)[C@@H]3O)[C@@H](O)[C@H]2O)C=CC1; assay: as above; format: biochemical, Pseudomonas moorei; settings: other: PPO 2-10 mM, NADPH 1-5 mM, pH 7.4, 35° C., double-reciprocal plot
Description: as §1, §2

[13] = substrate: CP(=O)(O)CCC(=O)C(=O)O; assay: Kinetic parameters of purified mutant PPTGDH-F188P; format: biochemical, Pseudomonas moorei; settings: other: PPO 2-10 mM, NADPH 1-5 mM, pH 7.4, 35° C., double-reciprocal plot
Description: as §1, §2

[14] = substrate: NC(=O)C1=CN([C@@H]2O[C@H](COP(=O)(O)OP(=O)(O)OC[C@H]3O[C@@H](n4cnc5c(N)ncnc54)[C@H](OP(=O)(O)O)[C@@H]3O)[C@@H](O)[C@H]2O)C=CC1; assay: Kinetic parameters of purified mutant PPTGDH-F188P; format: biochemical, Pseudomonas moorei; settings: other: PPO 2-10 mM, NADPH 1-5 mM, pH 7.4, 35° C., double-reciprocal plot
Description: as §1, §2

[15] = other: PPO 2-10 mM, NADPH 1-5 mM, pH 7.4, 35° C., double-reciprocal plot

B1: Pseudomonas moorei glufosinate-ammonium dehydrogenase E3 (PPTGDH, PPTGDHE3, WP_090325311.1), wild type, SEQ ID NO: 6 (Pseudomonas moorei) (protein)
chain: MIESVESFLARLKKRDPDQPEFHQAVEEVLRSLWPFLEANPRYLTSGILERICEPERAIVFRVSWVDDQGKVQVNRGFRIQMNSAIGPYKGGLRFHPSVNLGVLKFLAFEQTFKNSLTSLPMGGGKGGSDFDPKGKSDAEVMRFCQAFMSELYRHIGADVDVPAGDIGVGAREIGFLFGQYKRLSNQFTSVLTGKGPSYGGSLIRPEATGFGCVYFAEEMLKRRGETVEGKRVAISGSGNVAQYAARKVMDLGGKVISLSDSEGTLYCESGLTEAQWQAVLELKNVQRGRISELAGRFGLEFLAGQRPWGLSCDIALPCATQNELDAEAARALLRNGCTCVAEGANMPTTLEAVDLFIEAGILFAPGKASNAGGVAVSGLEMSQNAMRLLWTGGEVDSKLHAIMQSIHHACVHYGEENGQVNYVKGANIAGFVKVADAMLAQGVV
In the case of B1, the Km [1] is reported as 3.12 mM, the kcat [1] is reported as 47.51 ± 2.05 s⁻¹ and the kcat/Km [1] is reported as 15.22 s⁻¹ mM⁻¹. It also gave a Km [2, 15] of 0.12 mM and a kcat/Km ([2]; other: pH 7.4, 35° C.) of 395.91 s⁻¹ mM⁻¹.

B2: Pseudomonas moorei glufosinate-ammonium dehydrogenase E3 (SEQ ID NO: 6) variant PPTGDH-G239K (Pseudomonas moorei; G239K) (protein)
chain: B1 chain with G239K
For B2, the Km [3] was 2.53 mM, the kcat [3] was 33.98 ± 1.55 s⁻¹ and the kcat/Km [3] was 13.43 s⁻¹ mM⁻¹. It also gave a Km [4] of 0.068 mM and a kcat/Km [4] of 499.70 s⁻¹ mM⁻¹.

B3: Pseudomonas moorei glufosinate-ammonium dehydrogenase E3 (SEQ ID NO: 6) variant PPTGDH-L107R-F188P-G239K-F357G, SEQ ID NO: 9 (Pseudomonas moorei; … (protein)
chain: B1 chain with L107R, F188P, G239K, F357G
Work on B3 yielded a Km [1] of 2.11 mM, a kcat [1] of 712.6 ± 3.21 s⁻¹ and a kcat/Km [1] of 337.73 s⁻¹ mM⁻¹. It also gave a Km [2, 15] of 0.052 mM and a kcat/Km [2, 15] of 13703 s⁻¹ mM⁻¹.

B4: Pseudomonas moorei glufosinate-ammonium dehydrogenase E3 (SEQ ID NO: 6) variant PPTGDH-L107R-F188P (Pseudomonas moorei; F188P/L107R) (protein)
chain: B1 chain with L107R, F188P
B4 was tested, and the Km [5] was 3.22 mM, the kcat [5] was 67.10 ± 2.81 s⁻¹ and the kcat/Km [5] was 20.84 s⁻¹ mM⁻¹. It also gave a Km [6] of 0.112 mM and a kcat/Km [6] of 599.11 s⁻¹ mM⁻¹.

B5: Pseudomonas moorei glufosinate-ammonium dehydrogenase E3 (SEQ ID NO: 6) variant PPTGDH-F357G (Pseudomonas moorei; F357G) (protein)
chain: B1 chain with F357G
Work on B5 yielded a Km [7] of 3.35 mM, a kcat [7] of 56.31 ± 1.80 s⁻¹ and a kcat/Km [7] of 16.808 s⁻¹ mM⁻¹. The Km [8] was 0.105 mM and the kcat/Km [8] was 536 s⁻¹ mM⁻¹.

B6: Pseudomonas moorei glufosinate-ammonium dehydrogenase E3 (SEQ ID NO: 6) variant PPTGDH-L107R (Pseudomonas moorei; L107R) (protein)
chain: B1 chain with L107R
In the case of B6, the Km [9] is reported as 2.43 mM, the kcat [9] is reported as 42.02 ± 2.47 s⁻¹ and the kcat/Km [9] is reported as 17.29 s⁻¹ mM⁻¹. For the same protein, the Km [10] was 0.102 mM and the kcat/Km [10] was 411.96 s⁻¹ mM⁻¹.

B7: Pseudomonas moorei glufosinate-ammonium dehydrogenase E3 (SEQ ID NO: 6) variant PPTGDH-L107R-F188P-G239K (Pseudomonas moorei; F188P/G239K/L107R) (protein)
chain: B1 chain with L107R, F188P, G239K
For B7, the Km [11] was 2.09 mM, the kcat [11] was 607.5 ± 4.02 s⁻¹ and the kcat/Km [11] was 290.67 s⁻¹ mM⁻¹. For the same protein, the Km [12] was 0.045 mM and the kcat/Km [12] was 13500 s⁻¹ mM⁻¹.

B8: Pseudomonas moorei glufosinate-ammonium dehydrogenase E3 (SEQ ID NO: 6) variant PPTGDH-F188P (Pseudomonas moorei; F188P) (protein)
chain: B1 chain with F188P
B8 showed a Km [13] of 4.16 mM, a kcat [13] of 33.50 ± 1.51 s⁻¹ and a kcat/Km [13] of 8.05 s⁻¹ mM⁻¹. For the same protein, the Km [14] was 0.14 mM and the kcat/Km [14] was 239.29 s⁻¹ mM⁻¹.
